Laboratory results reported in patent US20160168251A1 (MorphoSys, published 2016).

T1: human NPRA on HEK293 cells, without added ligand (human, UniProt P16066 33-1061)
T1 construct: a signal peptide is not delimited; also called HEK NPRA cells; HEK hNPRA cells
T1 sequence: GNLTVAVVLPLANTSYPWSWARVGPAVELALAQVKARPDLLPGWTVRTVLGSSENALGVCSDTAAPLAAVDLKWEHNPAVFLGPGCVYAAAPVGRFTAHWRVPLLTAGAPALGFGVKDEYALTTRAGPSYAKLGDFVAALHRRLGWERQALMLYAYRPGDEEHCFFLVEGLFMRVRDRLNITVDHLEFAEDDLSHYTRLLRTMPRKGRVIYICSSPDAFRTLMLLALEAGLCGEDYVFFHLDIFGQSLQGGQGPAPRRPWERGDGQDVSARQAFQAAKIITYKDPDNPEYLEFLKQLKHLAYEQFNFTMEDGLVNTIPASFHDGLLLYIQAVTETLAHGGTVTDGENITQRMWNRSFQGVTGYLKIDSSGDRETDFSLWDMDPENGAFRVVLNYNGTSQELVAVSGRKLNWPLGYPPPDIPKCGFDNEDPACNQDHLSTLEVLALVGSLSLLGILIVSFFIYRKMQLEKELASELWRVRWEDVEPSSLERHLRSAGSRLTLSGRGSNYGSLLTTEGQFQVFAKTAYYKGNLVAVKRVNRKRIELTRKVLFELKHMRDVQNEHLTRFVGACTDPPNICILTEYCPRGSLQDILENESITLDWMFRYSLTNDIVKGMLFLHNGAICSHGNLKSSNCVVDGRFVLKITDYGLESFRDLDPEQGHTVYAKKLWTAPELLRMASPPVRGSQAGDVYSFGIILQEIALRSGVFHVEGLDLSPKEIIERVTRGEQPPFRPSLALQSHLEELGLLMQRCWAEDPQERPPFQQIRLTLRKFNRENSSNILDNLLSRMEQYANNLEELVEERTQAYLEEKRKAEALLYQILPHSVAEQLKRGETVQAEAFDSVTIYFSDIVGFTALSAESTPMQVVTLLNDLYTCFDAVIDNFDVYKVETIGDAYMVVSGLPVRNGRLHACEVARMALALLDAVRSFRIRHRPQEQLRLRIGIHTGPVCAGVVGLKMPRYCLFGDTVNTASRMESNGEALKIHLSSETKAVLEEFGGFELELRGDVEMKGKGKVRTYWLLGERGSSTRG

T2: rat NPRA on HEK cells bound to ANP (rat, UniProt P18910 29-1057; P01161 123-150)
T2 sequence (looked up): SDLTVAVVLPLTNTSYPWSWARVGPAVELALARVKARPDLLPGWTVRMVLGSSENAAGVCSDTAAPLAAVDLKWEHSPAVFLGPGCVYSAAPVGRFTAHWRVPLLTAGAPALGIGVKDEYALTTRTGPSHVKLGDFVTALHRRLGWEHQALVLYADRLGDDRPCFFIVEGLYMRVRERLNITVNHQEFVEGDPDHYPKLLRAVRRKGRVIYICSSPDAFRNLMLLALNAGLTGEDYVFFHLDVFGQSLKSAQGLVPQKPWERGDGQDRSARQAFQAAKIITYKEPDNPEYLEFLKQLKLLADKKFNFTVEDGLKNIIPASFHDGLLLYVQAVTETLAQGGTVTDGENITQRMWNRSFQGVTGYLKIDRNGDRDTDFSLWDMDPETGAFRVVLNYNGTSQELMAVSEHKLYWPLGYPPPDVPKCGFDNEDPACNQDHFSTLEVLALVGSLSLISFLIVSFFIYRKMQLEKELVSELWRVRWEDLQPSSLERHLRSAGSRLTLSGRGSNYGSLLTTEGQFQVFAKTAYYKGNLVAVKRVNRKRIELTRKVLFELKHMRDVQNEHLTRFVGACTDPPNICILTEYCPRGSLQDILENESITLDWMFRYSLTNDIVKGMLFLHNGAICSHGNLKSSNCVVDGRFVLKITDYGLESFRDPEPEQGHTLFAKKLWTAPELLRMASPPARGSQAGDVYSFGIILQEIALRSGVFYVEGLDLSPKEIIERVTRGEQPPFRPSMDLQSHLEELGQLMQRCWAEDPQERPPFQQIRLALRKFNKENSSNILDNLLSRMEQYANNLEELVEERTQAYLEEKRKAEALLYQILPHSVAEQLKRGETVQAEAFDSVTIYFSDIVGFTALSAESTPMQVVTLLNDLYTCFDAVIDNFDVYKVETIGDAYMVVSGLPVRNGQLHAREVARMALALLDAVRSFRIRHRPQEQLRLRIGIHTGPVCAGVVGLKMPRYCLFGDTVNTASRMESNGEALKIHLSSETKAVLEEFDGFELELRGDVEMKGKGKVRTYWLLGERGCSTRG
T2 sequence (peptide, looked up): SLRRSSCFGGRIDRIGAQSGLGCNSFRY

T3: human NPRA on HEK293 cells bound to ANP (human, UniProt P01160 124-151)
T3 construct: mature; Receptor-ligand complex on cells; also called HEK NPRA cells loaded with ANP; ANP-NPRA complex
T3 sequence: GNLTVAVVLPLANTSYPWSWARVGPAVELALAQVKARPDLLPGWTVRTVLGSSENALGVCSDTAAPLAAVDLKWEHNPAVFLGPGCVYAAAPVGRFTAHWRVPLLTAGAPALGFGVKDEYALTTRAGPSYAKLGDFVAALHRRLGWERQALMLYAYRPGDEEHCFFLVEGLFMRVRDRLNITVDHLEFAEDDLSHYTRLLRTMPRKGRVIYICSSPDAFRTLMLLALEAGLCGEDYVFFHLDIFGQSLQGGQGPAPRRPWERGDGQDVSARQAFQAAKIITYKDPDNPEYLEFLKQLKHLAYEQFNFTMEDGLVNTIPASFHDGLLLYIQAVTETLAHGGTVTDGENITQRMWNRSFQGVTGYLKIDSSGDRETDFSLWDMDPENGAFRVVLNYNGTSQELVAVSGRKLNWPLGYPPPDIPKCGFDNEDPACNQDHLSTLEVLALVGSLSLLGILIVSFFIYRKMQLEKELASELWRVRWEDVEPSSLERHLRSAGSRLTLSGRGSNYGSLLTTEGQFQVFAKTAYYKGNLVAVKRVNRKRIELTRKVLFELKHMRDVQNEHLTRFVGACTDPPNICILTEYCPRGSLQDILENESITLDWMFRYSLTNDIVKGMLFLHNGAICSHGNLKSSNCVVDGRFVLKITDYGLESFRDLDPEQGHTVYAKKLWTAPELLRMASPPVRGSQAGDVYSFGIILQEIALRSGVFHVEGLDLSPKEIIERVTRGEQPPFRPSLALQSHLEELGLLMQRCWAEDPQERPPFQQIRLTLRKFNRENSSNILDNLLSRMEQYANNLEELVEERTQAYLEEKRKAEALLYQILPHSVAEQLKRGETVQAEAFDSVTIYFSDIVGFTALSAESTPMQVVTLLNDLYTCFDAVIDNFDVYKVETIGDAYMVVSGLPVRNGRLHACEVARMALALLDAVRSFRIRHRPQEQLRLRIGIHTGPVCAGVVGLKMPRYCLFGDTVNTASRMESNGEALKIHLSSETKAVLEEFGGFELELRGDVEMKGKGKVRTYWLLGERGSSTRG
T3 sequence (peptide): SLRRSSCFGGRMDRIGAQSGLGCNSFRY

B1: 5502 IgG4_Pro (antibody, V domains shown)
VH: QVQLQQSGPGLVKPSQTLSLTCAISGDSVSSRSASWSWIRQSPGRGLEWLGRIYYRSKWYNDYAVSVKSRITINPDTSKNQFSLQLNSVTPEDTAVYYCARMDVPSFRYFDVWGQGTLVTVSS
VL: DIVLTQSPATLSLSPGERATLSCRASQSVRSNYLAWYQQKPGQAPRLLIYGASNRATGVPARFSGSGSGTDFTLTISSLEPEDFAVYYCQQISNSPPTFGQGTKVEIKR
notes: Human IgG4_Pro
B2: 5591 IgG4_Pro (antibody, V domains shown)
VH: QVQLQQSGPGLVKPSQTLSLTCAISGDSVSSRSASWSWIRQSPGRGLEWLGRTYYRSHWYYEYAQSVKSRITINPDTSKNQFSLQLNSVTPEDTAVYYCARMDVPSFRYFDVWGQGTLVTVSS
VL: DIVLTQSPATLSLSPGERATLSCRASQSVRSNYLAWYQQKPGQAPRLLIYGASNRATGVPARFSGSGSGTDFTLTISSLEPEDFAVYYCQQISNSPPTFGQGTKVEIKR

Legend:
[1] = target: T1, human NPRA on HEK293 cells, without …; test: FACS, HEK NPRA cells without ligand
[2] = target: canine NPRA on HEK cells bound to ANP (canine, UniProt A0A8I3MHU3 32-1060); test: KinExA whole cell binding (Kd,app), HEK cells with canine NPRA, ANP bound
[3] = target: T2, rat NPRA on HEK cells bound to ANP; test: cell-based or functional assay
[4] = target: T3, human NPRA on HEK293 cells bound to ANP; test: KinExA whole cell binding, HEK NPRA cells with 1 nM ANP, against SPR on NPRA-Fc

Chain of canine NPRA on HEK cells bound to ANP (A0A8I3MHU3 entry or part of it): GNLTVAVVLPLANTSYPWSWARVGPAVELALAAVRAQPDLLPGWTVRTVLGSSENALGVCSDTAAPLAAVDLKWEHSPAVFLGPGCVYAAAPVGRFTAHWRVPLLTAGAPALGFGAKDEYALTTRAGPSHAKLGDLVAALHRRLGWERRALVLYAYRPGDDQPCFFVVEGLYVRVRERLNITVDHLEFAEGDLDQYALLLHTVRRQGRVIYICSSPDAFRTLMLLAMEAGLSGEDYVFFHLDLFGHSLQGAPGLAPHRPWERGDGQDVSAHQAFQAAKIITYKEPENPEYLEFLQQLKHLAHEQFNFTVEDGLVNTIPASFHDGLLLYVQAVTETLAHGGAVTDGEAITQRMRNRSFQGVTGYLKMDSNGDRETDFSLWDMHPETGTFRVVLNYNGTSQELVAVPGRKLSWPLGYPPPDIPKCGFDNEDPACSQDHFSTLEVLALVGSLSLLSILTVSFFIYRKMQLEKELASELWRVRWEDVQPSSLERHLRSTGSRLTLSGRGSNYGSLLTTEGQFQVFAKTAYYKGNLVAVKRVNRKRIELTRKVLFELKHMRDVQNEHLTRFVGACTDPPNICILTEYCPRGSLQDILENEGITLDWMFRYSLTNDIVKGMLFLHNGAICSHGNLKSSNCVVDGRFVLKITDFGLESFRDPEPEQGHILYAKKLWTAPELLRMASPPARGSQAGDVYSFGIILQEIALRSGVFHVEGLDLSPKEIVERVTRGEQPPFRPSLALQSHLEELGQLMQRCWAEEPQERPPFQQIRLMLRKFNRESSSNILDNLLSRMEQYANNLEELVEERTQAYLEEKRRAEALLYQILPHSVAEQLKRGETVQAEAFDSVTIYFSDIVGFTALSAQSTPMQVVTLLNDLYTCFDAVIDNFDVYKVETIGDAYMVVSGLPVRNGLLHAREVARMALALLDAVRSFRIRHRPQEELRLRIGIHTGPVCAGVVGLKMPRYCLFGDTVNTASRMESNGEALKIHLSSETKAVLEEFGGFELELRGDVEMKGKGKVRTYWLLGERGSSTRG

Binder	binding result [1]	Kd [2]	Fold shift in EC50 of ANP (cGMP), HEK cells with rat NPRA [3]	fold, apparent Kd on cells (KinExA) over Kd by surface plasmon resonance on NPRA-Fc [4]
B1	no binding (tested: 20 nM)	–	–	–
B2	–	0.096 nM	3 fold	~20 fold
